Test results published in publication PMC9410896.

T1: MucR1 (Sinorhizobium fredii CCBAU45436, UniProt C3M8K5 1-143, A8T;V56I)
T1 sequence: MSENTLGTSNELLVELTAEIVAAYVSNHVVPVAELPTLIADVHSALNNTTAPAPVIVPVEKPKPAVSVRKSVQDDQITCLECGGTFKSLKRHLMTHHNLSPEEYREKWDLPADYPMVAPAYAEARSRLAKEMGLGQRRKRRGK

B1: motif_a1 (dsDNA)
DNA 1: GTTGTTTAGGTATTTTTTGGGGAATTGAAT
DNA 2: ATTCAATTCCCCAAAAAATACCTAAACAAC
B2: motif_b1(2) (dsDNA)
DNA 1: GGTATTTTTTGGGGAATTGAAT
DNA 2: ATTCAATTCCCCAAAAAATACC
B3: motif_b3 (dsDNA)
DNA 1: ATGCTTCCAAGTTGTTTAGGT
DNA 2: ACCTAAACAACTTGGAAGCAT
B4: motif_b4 (dsDNA)
DNA 1: TTATATTGACCGACTGAGATA
DNA 2: TATCTCAGTCGGTCAATATAA
B5: motif_b5 (dsDNA)
DNA 1: TTTAAATCACCTATTTATATT
DNA 2: AATATAAATAGGTGATTTAAA
B6: motif_b6 (dsDNA)
DNA 1: ATAGACAACGCAAAGTATTGA
DNA 2: TCAATACTTTGCGTTGTCTAT
B7: motif_b7 (dsDNA)
DNA 1: ATTGATATATCCATAGACAAC
DNA 2: GTTGTCTATGGATATATCAAT
B8: spacer S1 (primer name spacer2) (dsDNA)
DNA 1: GCCCAGTTCTACTCCATTTT
DNA 2: AAAATGGAGTAGAACTGGGC
B9: spacer S2 (primer name spacer1) (dsDNA)
DNA 1: GCCCAGTTCTACTCCATTTTTAGTAGAAA
DNA 2: TTTCTACTAAAAATGGAGTAGAACTGGGC
B10: spacer S3 (dsDNA)
DNA 1: AATTATCGGGATCGGGGGATAATGACA
DNA 2: TGTCATTATCCCCCGATCCCGATAATT
B11: spacer S4 (dsDNA)
DNA 1: AAACATTGACTGTATATAATTTTA
DNA 2: TAAAATTATATACAGTCAATGTTT
B12: motif_b8 (dsDNA)
DNA 1: CAATTGTATTGATATATCCAT
DNA 2: ATGGATATATCAATACAATTG

What follows are binders tested against T1, MucR1 (assay: EMSA).

Binding result, binds:
B1
B2
B3
B4
B5
B6
B7
B8
B9
B10
B11

Molecular target: T1, MucR1
Assay: EMSA
Remark: another data set of the same source

Binding result, binds:
B12
